Assay results: patent publication US20120316071A1 (published 2012)
Blank lines part the entries; values can stand above or below the binder they belong to.

How the values were obtained:
[1] = target: T1, rHuman Erythropoietin R/Fc Chimera, CF (R&D Systems Cat#963-ER) (human, UniProt P19235 25-250); test: Multispot ECL (MSD), antigen spotted on plate, Fab 15.6 nM; blank spot 294
T1 construct: Bought recombinant protein; also called EPO R/Fc; Epo R; Fc part of the bought chimera not given
T1 sequence (looked up): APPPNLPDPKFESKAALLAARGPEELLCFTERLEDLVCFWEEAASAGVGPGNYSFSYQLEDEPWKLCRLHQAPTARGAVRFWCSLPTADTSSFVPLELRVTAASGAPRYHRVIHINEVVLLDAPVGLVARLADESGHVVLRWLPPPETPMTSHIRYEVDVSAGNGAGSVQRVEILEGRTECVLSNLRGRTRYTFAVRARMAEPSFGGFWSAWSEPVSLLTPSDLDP

[2] = target: T2, rHuman Notch-1/Fc Chimera, CF (R&D Systems Cat#3647-TK) (human, UniProt P46531 19-526); test: as above
T2 construct: Bought recombinant protein; Fc part of the bought chimera not given

[3] = target: T3, rHuman Erythropoietin R/Fc Chimera, CF (R&D Systems Cat#963-ER) (human, UniProt P19235 25-250); test: MSD Multispot ECL, antigen spotted on plate, Fab 2.0 nM; blank spot 316
T3 construct: Bought reagent; also called EPO R/Fc; EPO R; Fc part of the bought chimera not given
T3 sequence (looked up): T1 sequence (looked up)

[4] = target: T4, rHuman HGF R/c-MET/Fc Chimera, CF (R&D Systems Cat#358-MT/CF) (human, UniProt P08581 25-932); test: as above
T4 construct: Bought reagent; also called HGF R/Fc; hepatocyte growth factor receptor; Fc part of the bought chimera not given

[5] = target: T5, Recombinant Human DLL4 (R&D Systems Cat#1506-D4/CF) (human, UniProt Q9NR61 27-529); test: as above
T5 construct: Bought recombinant protein; also called rHuman DLL4; delta-like protein 4

[6] = target: T6, rHuman CD44/Fc Chimera, CF (R&D Systems Cat#3660-CD) (human, UniProt P16070 21-220); test: as above
T6 construct: Bought reagent; Fc part of the bought chimera not given

[7] = target: T7, rHuman Notch-1/Fc Chimera, CF (R&D Systems Cat#3647-TK) (human, UniProt P46531 19-526); test: as above
T7 construct: Bought reagent; Fc part of the bought chimera not given

[8] = target: T8, rHuman EGF R/Fc Chimera, CF (R&D Systems Cat#344-ER) (human, UniProt P00533 25-645); test: as above
T8 construct: Bought reagent; also called epidermal growth factor receptor; Fc part of the bought chimera not given

[9] = target: T9, rHuman IGF-1 sR, (IGF-1 sR), CF (R&D Systems Cat#391-GR) (human, UniProt P08069 31-932); test: as above
T9 construct: Bought soluble receptor; also called insulin-like growth factor-1 soluble receptor

[10] = target: T10, rHuman HGF R/c-MET/Fc Chimera, CF (R&D Systems Cat#358-MT/CF) (human, UniProt P08581 25-932); test: Multispot ECL (MSD) assay, antigen spotted on plate, Fab at 0.312 µM; blank spot 1977
T10 construct: Bought recombinant protein; also called HGF R/Fc; hepatocyte growth factor receptor (HGF R/c-Met); Fc part of the bought chimera not given

[11] = target: T11, rHuman Notch-1/Fc Chimera, CF (R&D Systems Cat#3647-TK) (human, UniProt P46531 19-526); test: as above
T11 construct: Bought recombinant protein; Fc part of the bought chimera not given

[12] = target: T12, Recombinant Human DLL4 (R&D Systems Cat#1506-D4/CF) (human, UniProt Q9NR61 27-524); test: as above
T12 construct: Bought recombinant protein; also called delta-like protein 4; rHuman DLL4

[13] = target: T13, rHuman Erythropoietin R/Fc Chimera, CF (R&D Systems Cat#963-ER) (human, UniProt P19235 25-250); test: as above
T13 construct: Bought recombinant protein; also called EPO R/Fc; Epo R; Fc part of the bought chimera not given
T13 sequence (looked up): T1 sequence (looked up)

[14] = target: T14, rHuman IGF-1 sR, (IGF-1 sR), CF (R&D Systems Cat#391-GR) (human, UniProt P08069 31-932); test: as above
T14 construct: Bought recombinant soluble receptor; also called insulin-like growth factor-1 soluble receptor

[15] = target: T15, rHuman EGF R/Fc Chimera, CF (R&D Systems Cat#344-ER) (human, UniProt P00533 25-645); test: as above
T15 construct: Bought recombinant protein; also called epidermal growth factor receptor (EGF R); Fc part of the bought chimera not given

[16] = target: T16, rHuman ErbB2/Fc Chimera, CF (R&D Systems Cat#1129-ER) (human, UniProt P04626 23-652); test: as above
T16 construct: Bought recombinant protein; also called human epidermal growth factor 2 receptor (ErbB2); Fc part of the bought chimera not given

[17] = target: T17, rHuman P-Cadherin/Fc Chimera, CF (R&D Systems Cat#861-PC) (human, UniProt P22223 108-654); test: as above
T17 construct: Bought recombinant protein; Fc part of the bought chimera not given

[18] = target: T18, rHuman CD44/Fc Chimera, CF (R&D Systems Cat#3660-CD) (human, UniProt P16070 21-220); test: as above
T18 construct: Bought recombinant protein; Fc part of the bought chimera not given

ECL signal [1]: 8360
ECL signal [2]: 418
B1: Fab VH1-46_IGHD6-13*01_IGHJ4*01 & B3_IGKJ1*01 (Fab, V domains shown)
VH: QVQLVQSGAEVKKPGASVKVSCKASGYTFTSYYMHWVRQAPGQGLEWMGIINPSGGSTSYAQKFQGRVTMTRDTSTSTVYMELSSLRSEDTAVYYCAREGYSSSWYDYFDYWGQGTLVTVSS
VL: not shown
notes: Germline Fab made in E. coli; VH was cloned into Plasmid A (CH1, His6 and Flag tags) and the kappa VL into Plasmid C (kappa CL)

ECL signal [3]: 433
ECL signal [4]: 356
ECL signal [5]: 605
ECL signal [6]: 447
ECL signal [7]: 539
ECL signal [8]: 424
ECL signal [9]: 367
B2: Fab VH1-8_IGHD2-2*01_IGHJ6*01 & L12_IGKJ1*01 (Fab, V domains shown)
VH: QVQLVQSGAEVKKPGASVKVSCKASGYTFTSYDINWVRQATGQGLEWMGWMNPNSGNTGYAQKFQGRVTMTRNTSISTAYMELSSLRSEDTAVYYCARGGYCSSTSCYADYYYYYGMDVWGQGTTVTVSS
VL: not shown

ECL signal [10]: 4690
ECL signal [11]: 4460
ECL signal [12]: 5480
ECL signal [13]: 5020
ECL signal [14]: 3510
ECL signal [15]: 4330
ECL signal [16]: 3660
ECL signal [17]: 7100
ECL signal [18]: 4170
B3: Fab VH1-46_IGHD7-27*01_IGHJ2*01 & L6_IGKJ1*01 (Fab, V domains shown)
VH: QVQLVQSGAEVKKPGASVKVSCKASGYTFTSYYMHWVRQAPGQGLEWMGIINPSGGSTSYAQKFQGRVTMTRDTSTSTVYMELSSLRSEDTAVYYCARANWGYWYFDLWGRGTLVTVSS
VL: not shown
notes: Germline Fab made in E. coli; VH was cloned in Plasmid A (CH1 constant region, His6 and Flag tags) and the kappa VL in Plasmid C (kappa CL); Only the variable domains are tied to this Fab by name
